These results are taken from article PMC9022993, “Distinct phosphorylation signals drive acceptor versus free ubiquitin chain targeting by parkin” (Biochemical Journal, 2022).

The target of test [1] is T1, human parkin, full-length, affinity tag cleaved (human, UniProt O60260 1-465).
T1 construct: human parkin (RBR E3 ubiquitin ligase), full-length; the MST used the uncleaved His6-Smt3 form; also called unphosphorylated parkin; source: E. coli BL21(DE3), purified (Ni-NTA HisTrap FF, Ulp1 cleavage, gel filtration); not shown: His6, N-terminal, cleaved; Smt3, N-terminal, cleaved
T1 sequence (O60260 whole entry): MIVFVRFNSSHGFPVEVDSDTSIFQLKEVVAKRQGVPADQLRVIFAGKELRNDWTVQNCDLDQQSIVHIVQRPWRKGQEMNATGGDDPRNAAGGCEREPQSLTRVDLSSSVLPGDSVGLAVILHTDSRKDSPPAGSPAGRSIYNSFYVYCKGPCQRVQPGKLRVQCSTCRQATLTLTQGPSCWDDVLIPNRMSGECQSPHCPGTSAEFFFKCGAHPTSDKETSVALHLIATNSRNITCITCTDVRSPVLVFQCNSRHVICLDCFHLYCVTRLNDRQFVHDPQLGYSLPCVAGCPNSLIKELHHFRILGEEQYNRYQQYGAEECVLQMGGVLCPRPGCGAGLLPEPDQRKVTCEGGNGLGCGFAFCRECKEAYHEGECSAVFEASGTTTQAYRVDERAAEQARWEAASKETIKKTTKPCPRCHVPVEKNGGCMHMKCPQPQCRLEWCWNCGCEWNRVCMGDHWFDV
Description: MST + ITC; parkin with CISD1 (Supplementary Fig. S2); the text names 'either MST or ITC' and does not tell which was used for CISD1. Conditions: both partners purified.

Test [2] has as its target T2, His6-Smt3-Parkin (full-length human parkin, tag kept, labelled with RED-tris-NTA) (human, UniProt O60260 1-465, RED-tris-NTA dye bound to the His tag (Monolith His-Tag Labelling Kit RED-tris-NTA 2nd Generation)).
T2 construct: human parkin, full-length; Used for MST only; source: E. coli BL21(DE3), purified; not shown: His6, N-terminal, kept; Smt3, N-terminal, kept
Description: MST; His6-Smt3-Parkin constructs labelled with RED-tris-NTA; unlabelled partner in up to 16 1:1 serial dilutions (from 50 µM for Miro1^181-579); 25°C; PBS-T (PBS 1x, 0.05% Tween 20); 1:1 fit. The following applies: both partners purified.

Some results are limits rather than exact numbers.

T2 sequence (O60260 whole entry): as above

B1: human CISD1 (residues 32-108), entire extramembranous portion (domain or fragment, UniProt Q9NZ45 32-108, looked up)
chain: KRFYVKDHRNKAMINLHIQKDNPKIVHAFDMEDLGDKAVYCRCWRSKKFPFCDGAHTKHNEETGDNVGPLIIKKKET
notes: human CISD1 (MitoNEET) lacking only its transmembrane domain, residues 32-108; also called MitoNEET; source: E. coli BL21(DE3) with FeCl3 in the media, purified (Ni-NTA, TEV cleavage, gel filtration); not shown: His6, N-terminal, cleaved
Consider B1, for which the dissociation constant Kd in test [1] was more than 100 µM.

B2: Miro1^181-579 (near full-length, soluble construct of Miro1 that lacks only its GTPase1 domain) (domain or fragment, human, UniProt Q8IXI2 181-579, looked up)
chain: MKPACIKALTRIFKISDQDNDGTLNDAELNFFQRICFNTPLAPQALEDVKNVVRKHISDGVADSGLTLKGFLFLHTLFIQRGRHETTWTVLRRFGYDDDLDLTPEYLFPLLKIPPDCTTELNHHAYLFLQSTFDKHDLDRDCALSPDELKDLFKVFPYIPWGPDVNNTVCTNERGWITYQGFLSQWTLTTYLDVQRCLEYLGYLGYSILTEQESQASAVTVTRDKKIDLQKKQTQRNVFRCNVIGVKNCGKSGVLQALLGRNLMRQKKIREDHKSYYAINTVYVYGQEKYLLLHDISESEFLTEAEIICDVVCLVYDVSNPKSFEYCARIFKQHFMDSRIPCLIVAAKSDLHEVKQEYSISPTDFCRKHKMPPPQAFTCNTADAPSKDIFVKLTTMAMY
notes: source: E. coli BL21(DE3); purified as previously described by Kumar et al. [11]
In test [2], B2 registered a Kd of more than 100 µM.

One may read the Kd as the concentration at which binding is half-saturated.
